According to patent US20200339678A1 (RIGEL PHARMACEUTICALS, published 2020):

T1: His-tagged recombinant Mouse TIGIT (mouse, UniProt P86176 29-148, limits assumed)
T1 construct: not shown: His tag
T1 sequence (looked up): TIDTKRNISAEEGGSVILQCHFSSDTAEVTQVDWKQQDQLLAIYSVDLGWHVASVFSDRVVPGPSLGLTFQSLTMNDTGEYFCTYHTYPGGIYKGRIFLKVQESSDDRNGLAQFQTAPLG


Molecular target: T1, His-tagged recombinant Mouse TIGIT
Experiment: ELISA, coated His-tagged mouse TIGIT
Protocol: Binding affinities for antigen binding to anti-TIGIT monoclonal antibodies were determined by ELISA. […] Antibodies to be tested were diluted to 1 μM in PBS buffer containing 1% BSA and diluted 3-fold in a 10-point curve. […] Detection of the secondary antibody was determined using streptavidin-HRP and TMB reagent. All assays were performed at room temperature. Curve-fitting software was used to determine the EC₅₀ for each antibody.

EC50 | Binder
0.7 nM | Ab150 (Fab, V domains shown, ARE set) VH: not shown VL: DIQMTQSPSSLSASVGDRVTITCRASQSISSYVAWYQQKPGKAPKLLIYVNTSRASGVPSRFSGSGSGTDFTLTISSLQPEDFATYYCQQWYEFNLTFGGGTKVEIK
84.9 nM | Ab137 (Fab, V domains shown, ARV set) VH: EVQLLESGGGLVQPGGSLRLSCAASGFTFSSYSMHWVRQAPGKGLEWVASIKGNTGSISYADSVKGRFTISRDNSKNTLYLQMNSLRAEDTAVYYCARVPYDYWIDYWGQGTLVTVSS VL: not shown
122 nM | Ab154 (Fab, V domains shown, ARV set) VH: EVQLLESGGGLVQPGGSLRLSCAASGFTFSSYSMHWVRQAPGKGLEWVASIKSNTGTTGYADSVKGRFTISRDNSKNTLYLQMNSLRAEDTAVYYCARVPYGYWMDYWGQGTLVTVSS VL: not shown
110 nM | Ab183 (Fab, V domains shown, ARE set) VH: EVQLLESGGGLVQPGGSLRLSCAASGFTFSSYAMSWVRQAPGKGLEWVSYINSNTGSIGYADSVKGRFTISRDNSKNTLYLQMNSLRAEDTAVYYCAREPYGVWMDYWGQGTLVTVSS VL: not shown
7.8 nM | Ab146 (Fab, V domains shown, ARV set) VH: EVQLLESGGGLVQPGGSLRLSCAASGFTFSSYAMHWVRQAPGKGLEWVASISGNAGSSSYADSVKGRFTISRDNSKNTLYLQMNSLRAEDTAVYYCARVPYGVWIDYWGQGTLVTVSS VL: not shown
253 nM | Ab168 (Fab, V domains shown, ARE set) VH: EVQLLESGGGLVQPGGSLRLSCAASGFTFSSYAMSWVRQAPGKGLEWVSSIKSDTSSTYYADSVKGRFTISRDNSKNTLYLQMNSLRAEDTAVYYCAREPYSYWLDYWGQGTLVTVSS VL: not shown
64.9 nM | Ab173 (Fab, V domains shown, ARV set) VH: EVQLLESGGGLVQPGGSLRLSCAASGFTFSSYAMSWVRQAPGKGLEWVSSISSNTGTISYADSVKGRFTISRDNSKNTLYLQMNSLRAEDTAVYYCARVPYGYWMDYWGQGTLVTVSS VL: not shown
70.6 nM | Ab194 (Fab, V domains shown, ARE set) VH: EVQLLESGGGLVQPGGSLRLSCAASGFTFSSYSMSWVRQAPGKGLEWVSAINGNAGSIGYADSVKGRFTISRDNSKNTLYLQMNSLRAEDTAVYYCAREPYGVWMDYWGQGTLVTVSS VL: not shown
429 nM | Ab186 (Fab, V domains shown, ARV set) VH: EVQLLESGGGLVQPGGSLRLSCAASGFTFSSYSMHWVRQAPGKGLEWVASISSNAGYSSYADSVKGRFTISRDNSKNTLYLQMNSLRAEDTAVYYCARVPYDVWIDYWGQGTLVTVSS VL: not shown
20.4 nM | Ab162 (Fab, V domains shown, ARE set) VH: EVQLLESGGGLVQPGGSLRLSCAASGFTFSSYAMSWVRQAPGKGLEWVAAIKSSASTIYYADSVKGRFTISRDNSKNTLYLQMNSLRAEDTAVYYCAREPYSVWMDYWGQGTLVTVSS VL: not shown
40.3 nM | Ab188 (Fab, V domains shown, ARV set) VH: EVQLLESGGGLVQPGGSLRLSCAASGFTFSSYSMHWVRQAPGKGLEWVASIKSNAGTSSYADSVKGRFTISRDNSKNTLYLQMNSLRAEDTAVYYCARVPYDVWIDYWGQGTLVTVSS VL: not shown
173 nM | Ab140 (Fab, V domains shown, ARE set) VH: EVQLLESGGGLVQPGGSLRLSCAASGFTFSSYAMSWVRQAPGKGLEWVASINSNTGSIGYADSVKGRFTISRDNSKNTLYLQMNSLRAEDTAVYYCAREPYSYWLDYWGQGTLVTVSS VL: not shown
81 nM | Ab199 (Fab, V domains shown, ARV set) VH: EVQLLESGGGLVQPGGSLRLSCAASGFTFSSYSMHWVRQAPGKGLEWVASISSSASTSGYADSVKGRFTISRDNSKNTLYLQMNSLRAEDTAVYYCARVPYGVWIDYWGQGTLVTVSS VL: not shown
58.6 nM | Ab138 (Fab, V domains shown, ARE set) VH: EVQLLESGGGLVQPGGSLRLSCAASGFTFSSYAMSWVRQAPGKGLEWVASIKSSTGTTGYADSVKGRFTISRDNSKNTLYLQMNSLRAEDTAVYYCAREPYSVWIDYWGQGTLVTVSS VL: not shown
